Laboratory results as given in the supplement of paper PMC11136658.

Tested on: peptide library, one residue held at a place counted from the Y acceptor
Test: relative phosphorylation of the sub-library (ratio to the mean residue at this position); higher = residue favoured
Method in brief: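 Purified recombinant kinases were incubated for 90 min in 384-well plates with biotinylated Tyr-centred peptide library mixtures, each fixing one residue at one position from −5 to +5, plus 50 μM ATP with γ-32P-ATP. Peptides were captured on streptavidin membranes, rinsed and quantified by phosphorimaging and ImageQuant. Intensities were normalized per position by the sum of the 18 (or 16, Ser/Thr-free library) randomized residues and multiplied by that number. Values give phosphorylation relative to the mean randomized residue.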

ALK, construct: aa1058-end, human, sequence (Q9UM73 1058-1620, looked up): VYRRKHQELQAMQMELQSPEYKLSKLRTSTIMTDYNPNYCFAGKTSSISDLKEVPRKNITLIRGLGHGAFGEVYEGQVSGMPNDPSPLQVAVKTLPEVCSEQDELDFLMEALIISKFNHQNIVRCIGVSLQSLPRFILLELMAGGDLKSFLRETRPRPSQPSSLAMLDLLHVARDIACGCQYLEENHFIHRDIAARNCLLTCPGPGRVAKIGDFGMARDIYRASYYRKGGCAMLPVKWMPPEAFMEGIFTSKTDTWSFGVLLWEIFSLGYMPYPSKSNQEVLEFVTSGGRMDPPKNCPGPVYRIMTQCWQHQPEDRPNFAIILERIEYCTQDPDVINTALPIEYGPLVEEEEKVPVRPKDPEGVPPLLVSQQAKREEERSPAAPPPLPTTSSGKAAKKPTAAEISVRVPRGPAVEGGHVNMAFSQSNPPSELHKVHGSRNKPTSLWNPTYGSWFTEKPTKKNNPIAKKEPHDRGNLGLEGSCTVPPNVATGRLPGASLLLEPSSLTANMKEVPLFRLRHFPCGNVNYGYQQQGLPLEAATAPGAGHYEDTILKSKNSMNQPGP
BMX, construct: Full length, human, sequence (P51813 whole entry, looked up): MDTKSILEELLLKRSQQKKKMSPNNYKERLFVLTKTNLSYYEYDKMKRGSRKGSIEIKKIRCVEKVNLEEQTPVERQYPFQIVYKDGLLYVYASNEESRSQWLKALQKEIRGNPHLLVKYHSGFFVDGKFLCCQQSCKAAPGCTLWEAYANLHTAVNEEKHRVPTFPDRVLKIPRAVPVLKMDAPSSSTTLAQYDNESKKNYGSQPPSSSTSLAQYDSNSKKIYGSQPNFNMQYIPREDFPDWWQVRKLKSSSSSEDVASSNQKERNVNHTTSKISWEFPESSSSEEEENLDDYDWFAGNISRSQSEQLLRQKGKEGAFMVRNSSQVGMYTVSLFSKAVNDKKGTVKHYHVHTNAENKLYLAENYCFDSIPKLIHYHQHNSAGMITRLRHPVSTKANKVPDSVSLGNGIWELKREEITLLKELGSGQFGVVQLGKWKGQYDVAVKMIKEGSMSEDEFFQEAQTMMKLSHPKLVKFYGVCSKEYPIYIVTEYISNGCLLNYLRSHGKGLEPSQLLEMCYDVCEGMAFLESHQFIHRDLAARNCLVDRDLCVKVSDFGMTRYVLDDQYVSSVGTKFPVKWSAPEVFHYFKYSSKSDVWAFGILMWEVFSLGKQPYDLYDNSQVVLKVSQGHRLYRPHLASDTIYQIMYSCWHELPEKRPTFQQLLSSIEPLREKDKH
CSF1R, construct: aa539-end, human, sequence (P07333 539-972, looked up): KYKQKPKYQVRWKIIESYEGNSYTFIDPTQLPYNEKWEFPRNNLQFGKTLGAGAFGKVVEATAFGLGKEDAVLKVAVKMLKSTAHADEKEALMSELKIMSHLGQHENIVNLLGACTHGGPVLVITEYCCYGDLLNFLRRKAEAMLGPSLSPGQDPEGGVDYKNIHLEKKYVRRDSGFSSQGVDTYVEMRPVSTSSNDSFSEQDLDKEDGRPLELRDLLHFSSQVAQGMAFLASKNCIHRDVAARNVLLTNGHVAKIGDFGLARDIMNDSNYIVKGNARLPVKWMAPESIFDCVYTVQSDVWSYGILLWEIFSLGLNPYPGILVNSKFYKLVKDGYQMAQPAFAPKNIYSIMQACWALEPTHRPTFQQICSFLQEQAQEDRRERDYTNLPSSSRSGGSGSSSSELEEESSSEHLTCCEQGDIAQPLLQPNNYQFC

ALK, construct: aa1058-end, human (from UniProt Q9UM73)
relative phosphorylation
Conditions | at +1 | at +2 | at +3 | at +4 | at +5 | at -1 | at -2 | at -3 | at -4 | at -5
A fixed | 1.39 | 0.79 | 0.525 | 0.758 | 0.82 | 0.976 | 1.09 | 0.931 | 1.23 | 1.06
D fixed | 0.468 | 0.286 | 0.207 | 0.721 | 0.44 | 1.42 | 0.92 | 1.09 | 1.01 | 1.01
E fixed | 1.42 | 0.713 | 0.206 | 0.871 | 0.407 | 0.955 | 1.02 | 1.42 | 1.22 | 0.887
F fixed | 1.04 | 1.16 | 1.55 | 1.34 | 2.19 | 1.08 | 0.732 | 1.05 | 1.02 | 1
G fixed | 0.495 | 0.403 | 0.445 | 0.805 | 0.774 | 0.349 | 1.06 | 1.06 | 1.27 | 1.15
H fixed | 1.15 | 0.762 | 1.14 | 1.17 | 0.806 | 1.02 | 1.18 | 0.992 | 0.88 | 0.985
I fixed | 1.59 | 1.17 | 3.08 | 0.994 | 1.43 | 2.22 | 1.08 | 0.683 | 0.817 | 0.925
K fixed | 0.398 | 0.982 | 0.401 | 0.984 | 0.661 | 0.353 | 0.998 | 1.04 | 0.956 | 1.15
L fixed | 1.24 | 1.44 | 1.22 | 0.906 | 1.55 | 1.64 | 0.915 | 0.81 | 0.954 | 0.983
M fixed | 2.11 | 1.42 | 1.78 | 1.16 | 1.38 | 0.903 | 0.871 | 0.901 | 0.918 | 0.977
N fixed | 0.472 | 0.837 | 0.496 | 0.855 | 0.697 | 1.31 | 0.952 | 1.2 | 0.882 | 1.09
P fixed | 0.296 | 0.934 | 0.476 | 0.939 | 1.54 | 1.06 | 1.11 | 1.1 | 1.29 | 1.21
Q fixed | 1.15 | 0.852 | 0.414 | 1.11 | 0.601 | 0.669 | 1.04 | 0.908 | 1.09 | 0.946
R fixed | 0.528 | 1.46 | 0.667 | 1.31 | 0.879 | 0.346 | 1.19 | 1.19 | 1.31 | 1.21
S fixed | 0.929 | 0.776 | 0.526 | 0.873 | 0.706 | 0.64 | 1.13 | 1.05 | 0.776 | 0.857
T fixed | 0.947 | 0.682 | 0.854 | 0.842 | 0.974 | 0.91 | 1.06 | 0.983 | 0.644 | 0.76
V fixed | 1.43 | 1.06 | 2.3 | 0.998 | 0.968 | 1.53 | 0.929 | 0.733 | 0.803 | 0.819
W fixed | 0.939 | 2.26 | 1.72 | 1.36 | 1.18 | 0.613 | 0.72 | 0.865 | 0.927 | 0.963
pThr fixed | 1.14 | 0.414 | 0.169 | 0.406 | 0.326 | 0.79 | 0.836 | 0.834 | 0.909 | 0.952
pTyr fixed | 1.35 | 1.01 | 0.343 | 1.03 | 0.309 | 3.63 | 1.06 | 1.14 | 1.17 | 1.06

BMX, construct: Full length, human (from UniProt P51813)
relative phosphorylation
Conditions | at +1 | at +2 | at +3 | at +4 | at +5 | at -1 | at -2 | at -3 | at -4 | at -5
A fixed | 1.73 | 1.01 | 0.847 | 0.846 | 0.939 | 0.521 | 1.05 | 0.992 | 1.04 | 1.05
D fixed | 0.82 | 0.761 | 0.324 | 0.746 | 0.903 | 0.726 | 1.43 | 1.48 | 1.31 | 1.11
E fixed | 1.85 | 1.27 | 0.292 | 0.959 | 0.958 | 0.812 | 1.5 | 1.56 | 1.43 | 1.03
F fixed | 0.504 | 1.02 | 1.53 | 0.876 | 1.11 | 1.13 | 0.558 | 1.12 | 0.855 | 0.993
G fixed | 0.807 | 0.605 | 0.799 | 1.11 | 1.08 | 0.293 | 1.18 | 0.958 | 1.33 | 1.13
H fixed | 0.451 | 0.611 | 2.04 | 1.1 | 1.01 | 0.643 | 0.912 | 0.864 | 0.866 | 0.921
I fixed | 1.61 | 1.08 | 1.25 | 0.722 | 0.764 | 3.28 | 0.744 | 0.636 | 0.845 | 0.855
K fixed | 0.251 | 0.768 | 0.639 | 0.881 | 0.914 | 0.281 | 0.792 | 0.672 | 0.898 | 1.03
L fixed | 0.714 | 1 | 1.1 | 0.849 | 0.762 | 3.33 | 0.799 | 0.704 | 0.884 | 1.02
M fixed | 1.28 | 0.979 | 1.15 | 1.06 | 1.04 | 1.24 | 0.71 | 0.805 | 0.958 | 0.938
N fixed | 0.44 | 0.919 | 0.558 | 0.784 | 0.99 | 0.567 | 1.27 | 1.39 | 1.03 | 1.15
P fixed | 0.166 | 0.873 | 0.569 | 1.12 | 1.3 | 0.5 | 1.38 | 1.13 | 1.27 | 1.19
Q fixed | 1.26 | 1.02 | 1.09 | 1.19 | 0.953 | 0.652 | 1.3 | 1.08 | 1.26 | 1.1
R fixed | 0.332 | 0.919 | 1.47 | 1.27 | 1.2 | 0.298 | 0.81 | 0.823 | 0.987 | 1.06
S fixed | 1.38 | 1.27 | 0.866 | 0.935 | 1.1 | 0.475 | 1.18 | 1.08 | 0.797 | 0.923
T fixed | 1.39 | 1.35 | 0.704 | 0.936 | 1.02 | 1.1 | 1.03 | 0.909 | 0.724 | 0.787
V fixed | 1.74 | 1.42 | 1.24 | 0.898 | 0.788 | 1.64 | 0.866 | 0.792 | 0.738 | 0.867
W fixed | 1.28 | 1.11 | 1.53 | 1.73 | 1.16 | 0.501 | 0.493 | 0.987 | 0.777 | 0.868
pThr fixed | 2.3 | 2.57 | 0.296 | 0.734 | 0.603 | 2.21 | 1.19 | 1.25 | 1.09 | 0.986
pTyr fixed | 1.29 | 2.49 | 0.504 | 0.852 | 0.858 | 9.03 | 1.27 | 1.46 | 1.22 | 1.05

CSF1R, construct: aa539-end, human (from UniProt P07333)
relative phosphorylation
Conditions | at +1 | at +2 | at +3 | at +4 | at +5 | at -1 | at -2 | at -3 | at -4 | at -5
A fixed | 0.891 | 0.881 | 0.64 | 0.958 | 0.873 | 0.884 | 1.16 | 1.02 | 1.07 | 1.09
D fixed | 0.331 | 0.636 | 0.32 | 0.718 | 0.844 | 1.13 | 1.11 | 1.36 | 1.3 | 1.14
E fixed | 0.638 | 0.924 | 0.246 | 0.784 | 0.832 | 1.06 | 1.17 | 1.77 | 1.47 | 1.06
F fixed | 1.89 | 1.09 | 1.97 | 1.27 | 0.977 | 1.04 | 0.617 | 0.741 | 0.821 | 0.963
G fixed | 0.444 | 0.508 | 0.633 | 1.15 | 1.43 | 0.656 | 1.22 | 1.27 | 1.23 | 1.2
H fixed | 1.74 | 0.993 | 0.863 | 1.15 | 1.05 | 1.77 | 0.992 | 0.973 | 0.923 | 1
I fixed | 1.67 | 1.04 | 2.14 | 0.891 | 0.781 | 1.62 | 0.834 | 0.63 | 0.846 | 0.783
K fixed | 0.674 | 0.951 | 0.632 | 1.01 | 1.05 | 0.535 | 0.751 | 0.731 | 0.878 | 0.98
L fixed | 1.3 | 1.21 | 1.93 | 0.874 | 0.689 | 1.23 | 0.952 | 0.763 | 0.858 | 0.817
M fixed | 1.2 | 1.05 | 1.67 | 1.06 | 0.927 | 0.91 | 0.757 | 0.755 | 0.863 | 0.909
N fixed | 0.512 | 0.965 | 0.523 | 0.975 | 1.08 | 1.15 | 1.16 | 1.21 | 0.936 | 1.12
P fixed | 0.565 | 0.847 | 1.13 | 0.922 | 1.34 | 1.05 | 1.6 | 1.17 | 1.34 | 1.29
Q fixed | 0.973 | 0.989 | 0.519 | 0.965 | 0.931 | 0.919 | 1.03 | 1.07 | 0.921 | 0.93
R fixed | 0.745 | 1.31 | 0.929 | 1.36 | 1.2 | 0.474 | 0.844 | 0.786 | 0.782 | 0.871
S fixed | 0.721 | 0.893 | 0.604 | 1.02 | 1.24 | 0.687 | 1.2 | 1.14 | 0.97 | 1.03
T fixed | 0.938 | 1.11 | 0.856 | 1.04 | 1.07 | 1.08 | 1.08 | 1.12 | 0.899 | 1.01
V fixed | 1.56 | 1.11 | 1.47 | 0.851 | 0.756 | 1.12 | 0.939 | 0.748 | 0.866 | 0.859
W fixed | 1.2 | 1.49 | 0.91 | 1.01 | 0.928 | 0.678 | 0.575 | 0.745 | 1.02 | 0.943
pThr fixed | 0.739 | 1.17 | 0.232 | 0.432 | 0.567 | 1.02 | 0.996 | 1.2 | 1.12 | 0.956
pTyr fixed | 1.61 | 1.25 | 0.341 | 0.698 | 0.773 | 1.87 | 1.01 | 1.11 | 1.16 | 1
